{
  "source": "patent US20250257332A1",
  "about": "“TRUNCATED AND FUSION PROTEINS” (Monash University, priority 2021, published 2025)",
  "key": {"[1]": {"tested_on": "Human primary satellite cells", "assay": "Human primary satellite cell proliferation, CyQuant", "type": "cell-based", "conditions": "20 nM; 48 hours; media with IGF-1 and FGF-2", "method": "(§1) FIG. 8. Human NAMPT variants stimulate human satellite cell proliferation. Human primary satellite cells were treated with 20 nM full length NAMPT (NAMPT) or NAMPT variants (NAMPTxxx-xxx, where xxx are amino acid numbers) for 48 hours. The media contained the growth factors IGF-1 and FGF-2 as well. Quantification of cell proliferation was performed using CyQuant Proliferation Assay kit. […] Treatment with 20% FBS was used as a positive control. Box and whiskers denote median with minimum and maximum values. n=6-10 independent experiments per protein. Statistical significance is indicated as p-value and determined by one-sample t-test.\nThe inventors next sought to compare the activity of full length NAMPT, NAMPT402-491 and NAMPT422-491 on human satellite cell proliferation. Human primary satellite cells were treated with 20 nM full length NAMPT (NAMPT) or NAMPT402-491 and NAMPT422-491 for 48 hours."}, "[2]": {"tested_on": "needle-stab muscle injury in zebrafish larvae", "assay": "Larval zebrafish muscle injury and EdU pulse-chase", "type": "in vivo", "conditions": "57 nM in Ringer's solution immediately after injury at 4 dpf; EdU at 2 dpi", "method": "Zebrafish larvae (4 dpf) were anaesthetized in 0.01% tricaine (MS-222) (Sigma-Aldrich) in Ringer's solution. Needle-stab injury was carried out in the dorsal myotome, consisting in a single 30-gauge needle puncture that generates an extensive injury with many damaged muscle fibres. Nampt fragment treatments were carried out by incubating 4 dpf needle-stab-injured larvae in 57 nM Nampt in Ringer's solution immediately after injury. Needle-stab-injured larvae at 6 dpf (2 dpi) were transferred into Ringer's solution containing 50 μg ml-1 EdU (Thermo Fisher Scientific) for 1 h and chased for a further 1.5 h before fixation. Samples were developed using the Click-iT EdU Alexa Fluor 647 imaging Kit (Thermo Fisher Scientific) following the manufacturer's protocol, followed by a phalloidin immunostaining (Thermo Fisher Scientific). EdU+ cells in a region encompassing two myotomes on either side of the injury were quantified as the number of EdU+ cells outside the injury region. EdU+ cells in the caudal haematopoietic tissue were excluded from this analysis. Statistical analysis has been conducted using Two-way ANOVA with Tuckey's multiple comparison test."}, "TLR4": {"molecular_target": "T1, TLR4 (Homo sapiens, UniProt O00206)", "T1 construct": "host or cells: HEK-Blue TLR4 reporter cell line", "T1 sequence (O00206 24-839)": "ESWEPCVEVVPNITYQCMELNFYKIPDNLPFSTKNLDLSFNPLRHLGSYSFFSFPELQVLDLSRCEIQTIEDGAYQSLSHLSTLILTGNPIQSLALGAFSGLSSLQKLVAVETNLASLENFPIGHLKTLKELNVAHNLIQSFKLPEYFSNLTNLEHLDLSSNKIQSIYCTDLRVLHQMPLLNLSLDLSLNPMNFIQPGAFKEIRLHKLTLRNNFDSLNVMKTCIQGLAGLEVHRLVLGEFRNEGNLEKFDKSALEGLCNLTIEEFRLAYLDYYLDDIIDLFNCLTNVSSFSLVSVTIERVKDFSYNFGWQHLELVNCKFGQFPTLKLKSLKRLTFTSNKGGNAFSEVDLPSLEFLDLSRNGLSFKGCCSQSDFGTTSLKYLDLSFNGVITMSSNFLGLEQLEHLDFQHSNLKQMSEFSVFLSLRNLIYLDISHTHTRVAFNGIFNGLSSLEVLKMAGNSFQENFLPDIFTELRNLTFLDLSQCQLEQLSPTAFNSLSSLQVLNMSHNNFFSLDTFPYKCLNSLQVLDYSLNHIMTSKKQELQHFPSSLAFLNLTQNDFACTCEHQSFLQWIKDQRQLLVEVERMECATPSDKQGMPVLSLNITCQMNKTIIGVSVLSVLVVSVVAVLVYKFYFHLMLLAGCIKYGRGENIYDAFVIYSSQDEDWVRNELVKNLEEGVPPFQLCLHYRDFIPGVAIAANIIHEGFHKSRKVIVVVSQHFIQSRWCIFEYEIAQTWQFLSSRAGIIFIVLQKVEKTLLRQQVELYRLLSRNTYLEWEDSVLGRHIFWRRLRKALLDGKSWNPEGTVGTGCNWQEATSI", "T1 sequence (Q9Y6Y9 17-160 partner limits assumed)": "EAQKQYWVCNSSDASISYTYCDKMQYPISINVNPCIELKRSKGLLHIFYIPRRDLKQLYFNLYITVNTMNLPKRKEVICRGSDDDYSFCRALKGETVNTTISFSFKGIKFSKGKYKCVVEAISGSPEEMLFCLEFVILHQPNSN", "assay": "TLR4 signalling assay in HEK-Blue TLR4 reporter cells", "type": "cell-based", "conditions": "19 nM; 24 hours; plus 5 ug/ml polymyxin B; listed as NAMPTcif", "method": "TLR4 receptor activation was assayed using the HEK-Blue TLR4 reporter cell line (InvivoGen). In this cell line, TLR4 and downstream NFκB signalling induces expression and secretion of alkaline phosphatase that can be quantified via colorimetric assay. HEK-Blue cells were treated for 24 hours with 19 nM of NAMPTcif or PIGF-NAMPTcif plus 5 ug/ml polymyxin B to ensure no TLR4 activation by any trace amounts of endotoxin. TLR4 activity was reported as the equivalent amount of activation by bacterial lipopolysaccharides (LPS), thus a standard curve was generated by serial dilutions of LPS from 0.01 to 20 ng/ml. Detection of alkaline phosphatase activity was performed using a QUANTI-Blue kit (InvivoGen) according to manufacturer's instructions and plates were read using a Synergy H1 plate reader (BioTek). Data were presented as equivalent LPS concentration in ng/ml. A one-way ANOVA with Dunnett's multiple comparisons test was performed to determine statistical significance."}, "[3]": {"tested_on": "C2C12 murine myoblast cells", "assay": "C2C12 cell proliferation, CyQuant Proliferation Assay kit", "type": "cell-based, mouse", "conditions": "48 hours", "method": "FIG. 7. Human NAMPT variants stimulate muscle progenitor proliferation. C2C12 mouse myoblasts were treated with 20 nM full length NAMPT (NAMPT) or NAMPT variants for (NAMPTxxx-xxx, where xxx are amino acid numbers) 48 hours. Quantification of cell proliferation was performed using CyQuant Proliferation Assay kit. […] Box and whiskers denote median with minimum and maximum values. n=4-5 independent experiments per protein. Statistical significance is indicated as exact p-value. […] Significance between conditions were analysed by one-way ANOVA with Tukey post-hoc test.\nHuman NAMPTcif (hNAMPTcif) and truncated variants of hNAMPTcif were designed by progressively removing N-terminal regions containing positively charged amino acids. Four truncations were produced and numbered T1 to T4. Recombinant protein was produced using a bacterial expression system. hNAMPTcif variants were purified by FPLC using His-tag affinity purification. Cell proliferation assays were performed using C2C12 murine myoblast cells treated with purified recombinant hNAMPTcif variants, as well as full length NAMPT. Cells were treated with 10 nM of recombinant protein for 48 hours in DMEM supplemented with 2% foetal bovine serum at 37° C., 5% CO2. PBS treatment was used as a negative control. 10% foetal bovine serum was used as positive control. Quantification of proliferation was performed using commercially-available CyQuant Proliferation Assay kit (Thermo Fisher Scientific) according to manufacturer's instructions and read using a Synergy H1 plate reader (BioTek). Data were presented as percentage increase versus.\nThe heparin-binding sequence of placenta growth factor 2 (PIGF2) was fused to the N-terminus of NAMPTcif and produced using a bacterial expression system. PIGF-NAMPTcif was purified by FPLC using His-tag affinity purification followed by size exclusion chromatography. Cell proliferation assays were performed using C2C12 murine myoblast cells treated with purified recombinant NAMPTcif and full length NAMPT. Cells were treated with 2 nM, 10 nM and 20 nM concentrations of recombinant protein for 48 hours in DMEM supplemented with 2% foetal bovine serum at 37° C., 5% CO2. PBS treatment was used as a negative control. 10% foetal bovine serum was used as positive control. Quantification of proliferation was performed using commercially-available CyQuant Proliferation Assay kit (Thermo Fisher Scientific) according to manufacturer's instructions and read using a Synergy H1 plate reader (BioTek). Data were presented as percentage increase versus negative control. A two-tailed unpaired t-test was used to determine statistical significance."}, "[4]": {"tested_on": "Human primary endothelial cells derived from umbilical vein", "assay": "Human primary endothelial cell proliferation, CyQuant", "type": "cell-based", "conditions": "20 nM; 48 hours", "method": "as §1, with “9.” for “8.”, “endothelial” for “satellite”, “cells derived from umbilical vein” for “cells”, “hours.” for “hours. The media contained the growth factors IGF-1 and FGF-2 as well.”, “10%” for “20%”, “n=6” for “n=6-10”\nSimilarly, the inventors next investigated the activity of full length NAMPT, NAMPT402-491 and NAMPT422-491 on human endothelial cell proliferation. Human endothelial cells were derived from umbilical vein and treated with 20 nM full length NAMPT (NAMPT) or NAMPT variants for 48 hours."}, "recombinant mouse CCR5": {"molecular_target": "T2, recombinant mouse CCR5 (Mus musculus, UniProt P51682)", "T2 construct": "purchased MyBioSource", "T2 sequence (P51682 whole entry)": "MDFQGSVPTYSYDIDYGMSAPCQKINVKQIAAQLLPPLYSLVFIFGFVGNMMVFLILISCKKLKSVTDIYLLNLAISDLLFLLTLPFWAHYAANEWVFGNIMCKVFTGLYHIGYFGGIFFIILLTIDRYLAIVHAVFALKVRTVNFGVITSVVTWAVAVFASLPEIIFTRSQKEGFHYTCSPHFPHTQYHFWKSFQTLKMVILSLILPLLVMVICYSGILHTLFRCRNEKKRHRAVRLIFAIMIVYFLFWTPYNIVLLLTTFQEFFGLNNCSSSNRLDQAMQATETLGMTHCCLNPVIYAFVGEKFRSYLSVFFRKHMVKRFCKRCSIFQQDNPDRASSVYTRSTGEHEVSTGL", "assay": "NAMPT competitive binding to CCR5 (ELISA)", "method": "hrNAMPT competitive binding to mrCCR5: ELISA plates (Medium binding, Greiner Bio-One) were coated with 1% BSA or 20 nM of recombinant mouse CCR5 (MyBioSource) in PBS overnight at 4° C. Then, wells were blocked for 1 h at room temperature with 1% BSA in PBS containing 0.05% Tween-20 (PBS-T). Wells were washed 3 times with PBS-T and further incubated with hNAMPTcif at increasing concentration (0 nM to 100 nM) for 1 h in PBS-T with 0.1% BSA containing 100 nM hrNAMPT (1) (Peprotech). Bound hrNAMPT (1) molecules were detected using a biotinylated antibody for NAMPT and HRP-streptavidin (Human PBEF/Visfatin DuoSet ELISA, R&D Systems). Signals obtained on BSA-coated wells were used to remove non-specific binding for each hrNAMPT concentrations to obtain specific binding values. Specific binding data were fitted by non-linear regression with Prism 7 to obtain the half maximal inhibitory concentration (IC50) of hNAMPTnif using A450nm=A450nmMin+(A450nmMax−A450nmMin)/(1+10^(X-LogIC50))."}},
  "note": "“Also recorded” adds a separate entry of the source.",
  "data": [
    {"molecule": "NAMPT402-491: Human NAMPT cytokine finger, residues 402-491 of full length NAMPT, SEQ ID NO: 1 (protein, listed as Homo sapiens) SYVVTNGLGINVFKDPVADPNKRSKKGRLSLHRTPAGNFVTLEEGKGDLEEYGQDLLHTVFKNGKVTKSYSFDEIRKNAQLNIELEAAHH", "values": [
      {"measurement": "satellite cell proliferation, percentage increase vs PBS-treated control", "setting": "[1]", "value": "increased satellite cell proliferation compared to full length NAMPT"},
      {"measurement": "cell proliferation (EdU-positive cells) within the injury zone", "setting": "[2]", "value": "significant increase in cell proliferation within the injury zone"},
      {"measurement": "TLR4 activation (equivalent LPS concentration)", "setting": "TLR4", "value": "does not induce TLR4 activity compared to full length NAMPT; also recorded: abrogated TLR4 activity"},
      {"measurement": "cell proliferation, percentage increase vs PBS-treated control", "setting": "[3]; 10 nM, compared with full length NAMPT, listed as cif", "value": "stimulates satellite cell proliferation in a dose-dependent manner"},
      {"measurement": "cell proliferation, percentage increase vs PBS-treated control", "setting": "[3]; 10 nM, compared with full length NAMPT, listed as hNAMPTcif", "value": "enhanced stimulated satellite cell proliferation compared to full length hNAMPT"},
      {"measurement": "cell proliferation, percentage increase vs PBS-treated control", "setting": "[3]; 20 nM, compared with full-length NAMPT", "value": "enhanced cellular proliferation compared to full-length NAMPT"},
      {"measurement": "endothelial cell proliferation, percentage increase vs PBS-treated control", "setting": "[4]", "value": "increased endothelial cell proliferation compared to full length NAMPT and NAMPT422-491"},
      {"measurement": "inhibition of NAMPT binding to CCR5", "setting": "recombinant mouse CCR5", "value": "inhibits the binding of NAMPT to CCR5"}
    ]}
  ]
}
